Read-outs that look alike come from different tables or passages of the source.
Columns and labels:
Ago2 [1] = target: T1, Ago2 (Homo sapiens, UniProt Q9UKV8 1-859); assay: filter binding
Ago2 [2] = target: T1, Ago2; assay: filter binding; remark: listed apart in the source
Ago2 [3] = target: T1, Ago2; assay: filter binding; remark: listed apart in the source
Ago2 D669A = Ago2 D669A (Homo sapiens, UniProt Q9UKV8 1-859, D669A); assay: X-ray crystallography
Chain of Ago2 D669A (Q9UKV8 whole entry D669A): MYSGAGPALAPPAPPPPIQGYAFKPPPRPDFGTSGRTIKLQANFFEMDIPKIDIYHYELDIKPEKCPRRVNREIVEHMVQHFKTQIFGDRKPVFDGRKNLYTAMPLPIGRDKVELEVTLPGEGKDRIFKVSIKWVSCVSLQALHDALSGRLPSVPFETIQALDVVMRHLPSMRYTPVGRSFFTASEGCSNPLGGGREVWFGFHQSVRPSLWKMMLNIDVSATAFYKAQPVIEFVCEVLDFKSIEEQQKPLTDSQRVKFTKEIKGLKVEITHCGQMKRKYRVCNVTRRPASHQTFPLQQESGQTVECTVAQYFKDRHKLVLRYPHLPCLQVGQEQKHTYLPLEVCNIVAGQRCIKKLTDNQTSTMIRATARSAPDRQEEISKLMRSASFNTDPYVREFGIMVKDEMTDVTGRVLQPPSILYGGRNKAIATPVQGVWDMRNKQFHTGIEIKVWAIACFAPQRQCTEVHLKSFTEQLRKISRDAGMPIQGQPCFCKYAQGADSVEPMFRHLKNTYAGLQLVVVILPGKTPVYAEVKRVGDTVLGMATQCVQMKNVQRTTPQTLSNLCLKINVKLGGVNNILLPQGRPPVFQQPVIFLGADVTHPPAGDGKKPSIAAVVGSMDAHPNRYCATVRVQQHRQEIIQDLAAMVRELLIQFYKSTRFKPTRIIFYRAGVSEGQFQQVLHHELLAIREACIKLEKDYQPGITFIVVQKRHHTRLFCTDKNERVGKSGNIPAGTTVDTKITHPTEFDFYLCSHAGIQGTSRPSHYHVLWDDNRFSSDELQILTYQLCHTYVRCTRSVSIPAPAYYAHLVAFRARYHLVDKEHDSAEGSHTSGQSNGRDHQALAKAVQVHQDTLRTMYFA

T1 sequence (Q9UKV8 whole entry): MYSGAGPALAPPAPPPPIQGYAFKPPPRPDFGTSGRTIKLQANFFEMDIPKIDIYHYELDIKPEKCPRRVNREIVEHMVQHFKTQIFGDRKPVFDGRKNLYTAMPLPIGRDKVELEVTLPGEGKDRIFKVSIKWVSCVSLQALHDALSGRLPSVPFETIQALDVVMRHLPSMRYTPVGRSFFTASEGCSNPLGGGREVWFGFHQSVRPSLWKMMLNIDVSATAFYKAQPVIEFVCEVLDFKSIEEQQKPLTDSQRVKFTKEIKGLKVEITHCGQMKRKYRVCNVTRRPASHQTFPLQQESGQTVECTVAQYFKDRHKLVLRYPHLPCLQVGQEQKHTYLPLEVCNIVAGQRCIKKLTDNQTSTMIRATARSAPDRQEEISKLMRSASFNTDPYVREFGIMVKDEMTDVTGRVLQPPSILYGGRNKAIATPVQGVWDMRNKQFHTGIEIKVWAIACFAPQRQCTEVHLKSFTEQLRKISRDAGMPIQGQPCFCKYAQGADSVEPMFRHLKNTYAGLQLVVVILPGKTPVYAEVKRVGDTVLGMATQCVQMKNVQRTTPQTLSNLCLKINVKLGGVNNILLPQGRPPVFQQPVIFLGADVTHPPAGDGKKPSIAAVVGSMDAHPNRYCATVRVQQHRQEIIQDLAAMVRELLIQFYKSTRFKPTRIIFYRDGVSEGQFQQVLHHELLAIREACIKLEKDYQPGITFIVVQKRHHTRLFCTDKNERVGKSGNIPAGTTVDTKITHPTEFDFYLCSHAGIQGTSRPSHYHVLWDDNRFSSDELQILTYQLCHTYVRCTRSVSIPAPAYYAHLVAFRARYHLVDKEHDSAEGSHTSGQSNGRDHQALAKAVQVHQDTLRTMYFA

Binder	binding signal (Ago2 [2])	also measured
weak-sup miR-122 / 4 nt bridge (mixed, 5' phosphate on guide) RNA 1: UGGAGUGUGACACUAUCGAAAG RNA 2: AUAGAAAAACACUCCUAA		binding signal (Ago2 [1]): > 10 fold affinity vs seed-only N2
weak-sup miR-122 / 10 nt bridge (mixed, 5' phosphate on guide) RNA 1: UGGAGUGUGACACUAUCGAAAG RNA 2: AUAGAAAAAAAAAAACACUCCUAA		binding signal (Ago2 [1]): 1.9 fold affinity vs seed-only N2
strong-sup miR-122 / 2 nt bridge (mixed, 5' phosphate on guide) RNA 1: UGGAGUGUGACAGCGGCGAAAG RNA 2: CCGCAAACACUCCUAA	> 20 fold affinity vs seed-only N7	
strong-sup miR-122 / 4 nt bridge (mixed, 5' phosphate on guide) RNA 1: UGGAGUGUGACAGCGGCGAAAG RNA 2: CCGCAAAAACACUCCUAA	> 20 fold affinity vs seed-only N7	
strong-sup miR-122 / 1 nt bridge (mixed, 5' phosphate on guide) RNA 1: UGGAGUGUGACAGCGGCGAAAG RNA 2: CCGCAACACUCCUAA	> 10 fold affinity vs seed-only N7	
strong-sup miR-122 / 15 nt bridge (mixed, 5' phosphate on guide) RNA 1: UGGAGUGUGACAGCGGCGAAAG RNA 2: CCGCAAAAAAAAAAAAAAAACACUCCUAA	> 10 fold affinity vs seed-only N7	
EV2 guide / g13-g14 target (mixed, 5' phosphate on guide) RNA 1: UGGAGUGUGACACCGGCGAAAG RNA 2: GGCAAAACACUCCUAA		binding signal (Ago2 [3]): > 3.5 fold affinity vs seed-only N13
miR-122 21mer / 2-16 perfect target (mixed, 5' phosphate on guide) RNA 1: UGGAGUGUGACAAUGGUGUUU RNA 2: CCAUUGUCACACUCCAAA		binding result (Ago2 D669A): binds
